Measured values published in the supplement of paper PMC10126150.
± gives the standard deviation of the averaged measurements.

test system: ATP; assay: switch fluorescence ratio, 500 uM ATP over buffer (Cy3 cluster intensity, sum of 5 cycles each) (fold (ratio)); higher = stronger signal-on switching upon ATP binding; sequences stand for … in TCGTCGGCAGCGTCAGATGTGTATAAGAGACAGTTTTTTTTTTTTTTTTTTTTTTTTT…TC; settings: aptamer strand: ATP DNA aptamer (quencher-CACCTGGGGGAGTATTGCGGAGGAAGG + anchor), 100 nM annealed; ATP concentration: 500 uM
Outline: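 The quencher-labelled ATP aptamer, at 100 nM, was annealed to Cy3-labelled switching-strand clusters on a modified Illumina MiSeq flow-cell. The clusters were imaged in selection buffer, then after 15 min with 500 uM ATP at 22 °C, and this buffer/ATP cycle ran five times with NaOH stripping and re-annealing between runs. Per-cluster fluorescence ratios, summed target-cycle over summed buffer-cycle Cy3 intensity, were averaged per switch-domain sequence. Clusters outside 100-1000 RFU were excluded.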
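Further: ATP exposure 15 min at 22 °C before imaging.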

Row | Sequence | switch fluorescence ratio
1 | CCAAATTGGG | 1.016 ± 0.0048
2 | ATAATGGGCA | 0.983 ± 0.064
3 | GGCCTTAAGT | 0.9912 ± 0.0025
4 | ACTATGATCA | 1.02 ± 0.014
5 | TTTTACGAGT | 1.06 ± 0.16
6 | GCGTTAGCGC | 0.968 ± 0.012
7 | GGGGAGGTCT | 1.01 ± 0.03
8 | GCTATCTGCT | 0.976 ± 0.06
9 | TAATTTGTTA | 1 ± 0.02
10 | CACTCGTGGC | 1.01 ± 0.053
11 | ATTTGGGGGG | 1 ± 0.047
12 | CTGCACGGAG | 1.01 ± 0.022
13 | CGGGTTGGGG | 1 ± 0.016
14 | TTTTACGCCT | 1.02 ± 0.012
15 | AAGGTCATTA | 0.97235 ± 0.00041
16 | GTGGATTCAC | 0.98 ± 0.0096
17 | AGGCATGCTG | 0.98 ± 0.062
18 | TTTTTTTGAC | 1.01 ± 0.038
19 | ACTTATTGAA | 1.11 ± 0.17
20 | GGGGTGGGTT | 0.985 ± 0.036
21 | TTTTATTGGA | 1 ± 0.03
22 | GGGGAGCAGC | 1.11 ± 0.22

Row | Sequence | switch fluorescence ratio
23 | GGGCAAACGA | 1.12 ± 0.025
24 | GTTTTGGAGT | 1.05 ± 0.047
25 | TGGGCGTAAG | 1.02 ± 0.027
26 | ATTGGTTCCA | 1.03 ± 0.041
27 | GATGTCTATC | 1.01 ± 0.011
28 | AAGGGAACAA | 0.999 ± 0.048
29 | AAGTAAGCAG | 0.9636 ± 0.0011
30 | GGTCTTCCGC | 1.14 ± 0.088
31 | TACAGAACGC | 1.24 ± 0.24
32 | ATGGGACCGT | 1.01 ± 0.056
33 | TCAAACCGCA | 1.91 ± 0.16
34 | TGCGAGGTTG | 1.01 ± 0.041
35 | CGGGAGTGTC | 0.89727 ± 0.00075
36 | ATATATCGTG | 0.995 ± 0.019
37 | CGTTAGTATT | 0.9936 ± 0.00056
38 | GAGTGATTTA | 1.01 ± 0.035
39 | GGGTGGGATA | 1.02 ± 0.044
40 | TACCAGTGCT | 1.075 ± 0.0019
41 | AATTGGAGGA | 0.996 ± 0.033
42 | GGTGCTGGGG | 1.01 ± 0.019
43 | GAGTATGGGT | 1 ± 0.021
44 | TTCCAGGAGC | 0.946 ± 0.091

Row | Sequence | switch fluorescence ratio
45 | AGTATCCCTA | 0.998 ± 0.021
46 | CGGATTTTTT | 0.995 ± 0.021
47 | TTGCTTAAGG | 0.997 ± 0.026
48 | TTTGAGTTTG | 1.009 ± 0.0056
49 | TGGGAAGATT | 1.028 ± 0.0041
50 | GTGTGGAGGA | 1.03 ± 0.037
51 | TTAATTAAGT | 0.987 ± 0.04
52 | GTTATCGAGG | 1.02 ± 0.011
53 | TTTGACGGGT | 1.02 ± 0.029
54 | TCGGGCGG | 1.03 ± 0.014
55 | GGGAGTATGG | 0.977 ± 0.027
56 | TAGTGGCTTA | 0.98 ± 0.042
57 | ATTGGAGGTT | 0.995 ± 0.013
58 | GGCTAGTACT | 1.01 ± 0.011
59 | AATGGCAATG | 1.05 ± 0.026
60 | ATAATGGCTT | 0.988 ± 0.025
61 | TATTATGGAG | 0.988 ± 0.021
62 | TGAAAATTCA | 1.05 ± 0.077
63 | TTATGATTTG | 1.02 ± 0.02
64 | CGTCGGTTAG | 1.01 ± 0.015
65 | TGGGTTTTAC | 1.01 ± 0.049
66 | TGTGGGATAC | 1.2 ± 0.015

Row | Sequence | switch fluorescence ratio
67 | AAAAGCGTTA | 0.9962 ± 0.009
68 | ACAGTTAGGT | 0.992 ± 0.034
69 | TGTGGCGGGA | 1.06 ± 0.13
70 | ATTTCGTAGG | 1.01 ± 0.024
71 | TTTTGAAACG | 0.995 ± 0.025
72 | CGGAGTGTGC | 1.23 ± 0.047
73 | GCAATGGGAA | 1.1 ± 0.019
74 | AAGTATTAGA | 0.964 ± 0.011
75 | GCGGTGCTGG | 0.991 ± 0.024
76 | TAATAGTAAG | 0.996 ± 0.053
77 | GGGAGTGTGT | 0.986 ± 0.039
78 | GTTTTTGTCA | 1.021 ± 0.008
79 | CGACATCGGA | 1.02 ± 0.017
80 | AGGGGTGTT | 1.02 ± 0.016
81 | AGAGAAAGGG | 1.02 ± 0.035
82 | TCGGAATGTT | 1.02 ± 0.025
83 | CTAGAGGGTA | 0.98923 ± 0.00094
84 | TACGTATAGG | 1.098 ± 0.0028
85 | GGCTATTTAA | 1.002 ± 0.0063
